{"source": "a protein production outcome set (Wang et al. 2014)", "data": [{"assay": "label from the status in PepcDB records", "values": [{"sequence": "MSPASGSVISCAKVLDDYFYGSSNTVEALLLNSFETPALLFTTETSNLLTDIREDRSRHIEKISPYLLLTAGILSGFNPCLLAVMAFLASVNLTQKGRRKEMLKITLGFSTGIFTMHMLAGLSILGTVNFLPELRSYFSEIAVVMTALLGFWHIYDAYWLRKHAKTTFRTPQPLKDFMSRMDEKNLLLLSFLAGGMFSLVKAPCVGAVYLSLLSLLAMKTDIVRGIEYIWIFNLGLLLPVVLLGLLLAFGLSPKTVTEFRERKRVGIRLITGSILISLALMMQFRIL", "protein production": "failed"}, {"sequence": "MSPISEPSRLDPVRPGQLLMIDLPGPELDKDTAAYLREHGIGAVCLFGKNVESAEQLRRLCADLREVMGEHALIAIDHEGGAITRPEFWPFAPSAMSLGAADDQQLTEDVNAALARQLRSVGINWNFTPVLDINVNPANPVIGDRAYGSDAARVTRHGRAALAGHTREGVAPCAKHFPGHGDTHQDSHLALPRVSKSRAELDAGELAPFRALLPETPAIMTAHIVYDALDAEHPATLSPRILTGLLREEWGYDGVIVTDSMGMQAIDANYGRGEAAVRALRAGADLVMALGRREVQQATLAAVAEYVPENQAAVATKRERLRALARRFPAQADETLDPQADAALLADA", "protein production": "not failed"}, {"sequence": "MSPIVSVPDITAPVENVPAILPKVVPGELIVNKPTGGDSDELFQYLVDILASPVYDVAIESPLELAEKLSDRLGVNFYIKREDKQRVFSFKLRGAYNMMSNLSREELDKGVITASAGNHAQGVALAGQRLNCVAKIVMPTTTPQIKIDAVRALGGDVVLYGKTFDEAQTHALELSEKDGLKYIPPFDDPGVIKGQGTIGTEINRQLKDIHAVFIPVGGGGLIAGVATFFKQIAPNTKIIGVEPYGAASMTLSLHEGHRVKLSNVDTFADGVAVALVGEYTFAKCQELIDGMVLVANDGISAAIKDVYDEGRNILETSGAVAIAGAAAYCEFYKIKNENIVAIASGANMDFSKLHKVTELAGLGSGKEALLATFMVEQQGSFKTFVGLVGSLNFTELTYRFTSERKNALILYRVNVDKESDLEKMIEDMKSSNMTTLNLSHNELVVDHLKHLVGGSANISDEIFGEFIVPEKAETLKTFLDAFSPRNITLCRYRNQGDINASLLMGFQVPQAEMDEFKNQADKLGYPYELDNYNEAFNLVVSE", "protein production": "not failed"}, {"sequence": "MSPLASRALSFLGALSLLTFAATPVLAESTPTAAPPQFAVESPKAASSLLLSVAHAGKRLVAVGDRGHILLSDDDGKTWTQAKVPTRQLLTSVFFVNERKGWAVGHDAQILVSDDAGSTWARQFEDLGREAPLLDIWFADEQHGLAVGAYGALLETRDGGQHWEDVSERLDNEDQFHLNAIAAVKDNGLLVVGEAGSLFRSKDWGATWEKLEGPYEGSLFGAIGTADAGGVLVYGLRGHLFRSADFGDSWEEIPLKAASGDLEFGLSDGALLADGRIVVVGHGGSVLESTDGGRSFSVFNRPDRLSLAGVSATGDGHLILVGQGGVHLAAANGAALEQQQLEHHHHHH", "protein production": "failed"}, {"sequence": "MSPLHRFSRTEILIGPEKLQRLRESTVAIFGLGGVGSFAAEALCRAGVGRLVLVDFDDICLTNVNRQLHAMDGTVGKAKVQVMAERLRLINPDADIVPHKDFYEAGNSDFLLSGGYNYVVDAIDHITSKLHLIRSCRERELRIISSMGAANKLDPTKIRVADISKTSVCGLARVVRKQLRRQGIKSGVTVVYSTEEPREQAIADAGCRSNCICPNKEEQRFSCEHRRNILGSISFIPSIFGLTMAGVVVNDLAKD", "protein production": "failed"}, {"sequence": "MSPMTIPSEMKALLLVGDGYTKTPSGSALEAMEPYLEQGRIAVPAPGPSQVLIKVNLASINPSDVAFIKGQYGQPRVKGRPAGFEGVGTIVAGGDEPYAKSLVGKRVAFATGLSNWGSWAEYAVAEAAACIPLLDTVRDEDGAAMIVNPLTAIAMFDIVKQEGEKAFVMTAGASQLCKLIIGLAKEEGFRPIVTVRRDEQIALLKDIGAAHVLNEKAPDFEATLREVMKAEQPRIFLDAVTGPLASAIFNAMPKRARWIIYGRLDPDATVIREPGQLIFQHKHIEGFWLSEWMRQFKERRGPAILEAQKRFSDGRWSTDVTAVVPLAEAIAWVPAELTKPNGKVFIRP", "protein production": "not failed"}, {"sequence": "MSPNLFIHPRQMPQILLALLGKNLVEIARQFFSARDSNPFFTPAGLTRIARLGRSAVLIGKSKPVPAGKRPTGSKPVHSLPPDRVDPENHARLEVAETDRFPLVKESAPPASFFVEQSPSPAFGEEGNGACKGSGIGGRCVLCVGGRAVLYPEYRRVVEASGGKLVIYRNLPQEPGHHLPVLLDQADMVVCPLDCVNHTAFFTVKRYCRRSGKPCVLLDRSNLSTFCKGIATLAGLYTSPAPARSDQSKRRCPASPEEGQFKDYLEHHHHHH", "protein production": "failed"}, {"sequence": "MSPRRSAAEAQATRGRILGRAAEIASEEGLDGITIGRLAEELEMSKSGVHKHFGTKETLQISTLDKAFVDFWHRVVEPALAEPPGLRRLRAVCANSVGYLEEPLLPGGCLLTAALSEYDGRPGRVRDAVAEVWSRWREQLRADLTAAVDKGELPAGFDVEQALFEIVAAGLALNAAMQLQHDRTAADRARRAIERALAQS", "protein production": "not failed"}, {"sequence": "MSPTHKPMPEPTEVFTLPRWKITRWLTDTDRDVPTDIKRALIGSLFGTLSIFVGGVVNTLLVAALIAWHIQRPAFFAWFGLECLICIARISILVSARRRARAARSTHTDLHLALSLAWAFSVGLGTYLSITSGNWLAAALACLSSAAMIGGICFRNFGAPRMSGLMILLALGPCCLGAIVAREPLFLLTLIQLPVYVASMTSASFRMHAMLVATMQSERENAHRARHDSMTGLLNRGSLLAEIRATMECNAISPLRSALLYLDLDGFKRINDVHGHGCGDELLQQVADRMRATVPEGTHVSRIGGDEFVILLNLHESDDVQVLAQRLLRDIAVPYLLANGETVAIGVSIGITHISPNGQSADAVLNVADRALYVAKARGKGCFHFSEAVQAL", "protein production": "failed"}, {"sequence": "MSPTLSILIPVYKRDCRRLLEELYKQAEELSVGYEIILGDDCSGEPYTSQYIAYEQEGLCRLVSAEENMGAGRLRNRLAEEAQGEQLLILDSDTLPASPDFIERYLRHASGTTVVCGGFVYPPKSTNPLRQRYGAEVESRSAEERARKPHSGFISMAFMIPRKQMLATGFPPNMGMGYEDILFGERLRQAGIPILHIDNPVEHYHCDTAEGFLATTRSYLDNLYCHREELAELVSLLRAYNLLKRLHLMRMVAALWPLIRSSLEKQLTGAKPSLLLFSLYKLLYVASLSLVCAEKS", "protein production": "failed"}, {"sequence": "MSQAFPGPHGAPATGHVPVLRLGEVLLVTLQGDLHDSTAQQLQEDLAETIVRSGATGVVIDVSGVEIVDSFLGRILAEIAGQTGLLAARTVLVGMRPAVAITLVELGLTLPGVHTALSTEVAMELLRQQAPSSRFGGLRQESQ", "protein production": "not failed"}, {"sequence": "MSQDNYFSRMLRGEAPVPAVAGTLGGVIRAVDLEAGSLESDYVATDAFLNPVGQVQGGMLGAMLDDVTAMLVTATLEDGASCSTLNLNLSFLRPAQAGLLRGRARLERRGRNVCNVVGELSQDGKLVATATATCMVARRA", "protein production": "not failed"}, {"sequence": "MSQEAFENKLYANLEAVIDPELGVDIVNLGLVYDVTADENNNAVITMTMTSIGCPMAGQIVSDVKKVLSTNVPEVNEIEVNVVWNPPWSKERMSRMAKIALGIRD", "protein production": "not failed"}, {"sequence": "MSQFWYSEETASRLAEELLQQAGEHGRIACLSAPSVYQKLKQLESVRSDGVSAVLLEFDRRFAAYGDEFVFYDYNNPLCLPEDLLPQSFDIVIADPPYLSEECLSKVTLTVKHLTKGKILLCTGAIMEEHAGKLLDLKMCSFLPRHNHNLANEFRCYVNYESRLLS", "protein production": "failed"}, {"sequence": "MSQIEAVFFDCDGTLVDSEVICSRAYVTMFRQFDITLELTEVFRRFKGVKLYEIIDTISKEHGVALAKAELEPVYRAEVARLFDTELEAIAGANTLLESIKTPMCVVSNGPVSKMQHSLGKLGMLHHFPDLLFSGYDIQRWKPDPALMLHAANAMKVNVEKCILVDDSSAGAQSGIAAGMEVFYFCADPHNKPIDHPNVTTFTDLAQLPGLWKAR", "protein production": "failed"}, {"sequence": "MSQLEIRDLWASIDGETILKGVNLVVPKGEVHALMGPNGAGKSTLGKILAGDPEYTVERGEILLDGENILELSPDERARKGLFLAFQYPVEVPGVTIANFLRLALQAKLGREVGVAEFWTKVKKALELLDWDESYLSRYLNEGFSGGEKKRNEILQLLVLEPTYAVLDETDSGLDIDALKVVARGVNAMRGPNFGALVITHYQRILNYIQPDKVHVMMDGRVVATGGPELALELEAKGYEWLKEKVKEGA", "protein production": "not failed"}, {"sequence": "MSQLLKLKSQYDDECTVTRHYEGKGRNAGRLGAVGCKNRHGEFRIGSGFKDKDRDNPPKIGTLITYRYRGFTRKGTPKFATFVRVRTLEHHHHHH", "protein production": "failed"}]}]}
